T1: recombinant human IL-33 protein (residues 112 to 270) (ILC0701, ATGen Co. Ltd) (human, UniProt O95760 112-270)
T1 sequence: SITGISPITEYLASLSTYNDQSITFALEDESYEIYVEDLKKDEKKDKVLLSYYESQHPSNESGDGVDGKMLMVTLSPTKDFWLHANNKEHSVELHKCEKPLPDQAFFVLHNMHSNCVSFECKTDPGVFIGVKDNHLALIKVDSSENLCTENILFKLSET

T2: biotinylated 6His tag-AviTag-linked mature human IL-33 (residues 112 to 270) (human, UniProt O95760 112-270, biotin on the AviTag portion (BirA))
T2 construct: made in E. coli; also called biotinylated human IL-33 protein
T2 sequence: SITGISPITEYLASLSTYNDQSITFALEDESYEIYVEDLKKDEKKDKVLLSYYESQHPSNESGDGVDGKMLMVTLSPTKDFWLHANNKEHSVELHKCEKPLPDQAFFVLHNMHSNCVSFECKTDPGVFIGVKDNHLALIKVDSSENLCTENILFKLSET

T3: 6His-AviTag-linked cynomolgus monkey IL-33 (residues 112 to 269) (cynomolgus monkey, UniProt O95760 112-269 (human entry), biotin on the AviTag portion (BirA) in the SPR of Example 7; used without biotinylation in Example 10)
T3 construct: GenBank EHH57404 printed; also called cynomolgus monkey IL-33 protein; mature cynomolgus monkey IL-33
T3 chain: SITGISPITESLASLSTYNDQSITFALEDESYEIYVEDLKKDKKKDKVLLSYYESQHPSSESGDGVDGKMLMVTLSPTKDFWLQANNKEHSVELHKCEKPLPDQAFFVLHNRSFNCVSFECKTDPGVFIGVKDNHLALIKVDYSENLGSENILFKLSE


Columns and labels:
[1] = target: T1, recombinant human IL-33 protein …; assay: cell-based or functional assay
[2] = target: T1, recombinant human IL-33 protein …; assay: KinExA in PBS, neutral-purified IgG
Protocol: Each test antibody (IgG) (“antibody (IgG)” indicates an antibody having a molecular form of IgG; hereinafter, the same representation is used) was analyzed to confirm the affinity with the human IL-33 protein by measuring dissociation constant (Kd) between each test antibody and the human IL-33 protein in PBS by kinetic exclusion assay (KinExA) (KinExA3200, available from Sapidyne Instruments, Inc.). Mixture samples of a test antibody and a human IL-33 protein (ILC0701, available from ATGen Co. Ltd) were prepared. The human IL-33 protein was titrated to a constant concentration of test antibody (final concentration: several tens of pM to several hundreds of pM) over a wide concentration range of the human IL-33 protein (so that it covered the concentrations of the human IL-33 protein resulting from 12-step serial doubling dilutions, i.e. one- to 2048-fold, with the upper limit of final concentration set to several nM to several tens of nM). The mixture samples were incubated at a room temperature until the antigen-antibody reaction reached equilibrium. After the reaction reached equilibrium, the percentage of free anti-IL-33 antibody in each sample was analyzed using KinExA3200. The values of Kd were calculated by fitting the plot of percentages of anti-IL-33 antibody not bound to the human IL-33 protein (vertical axis) and concentrations of antigen (horizontal axis) to a theoretical formula, using a KinExA data analysis program (KinExA Pro Software v3.5.3, available from Sapidyne Instruments, Inc.). Beads for capturing the anti-IL-33 antibody were prepared by suspending 50 mg of Azlactone beads (Sapidyne) in 1 mL of coating solution (10 μg/mL human IL-33 protein (ILC0701, available from ATGen Co. Ltd), 50 mM sodium carbonate at pH of 9.6) and incubating the solution at a room temperature for one hour. The antibody for detection used was anti-human F(ab)′2-DyLight649 (Jackson, 309-495-006).

[3] = target: T1, recombinant human IL-33 protein …; assay: KinExA in PBS, alkaline-purified IgG
Protocol: Mixture samples of a test antibody and a human IL-33 protein (ILC0701, available from ATGen Co. Ltd) were prepared. The human IL-33 protein was titrated to a constant concentration of test antibody (final concentration: several tens of pM to several hundreds of pM) over a wide concentration range of the human IL-33 protein (so that it covered the concentrations of the human IL-33 protein resulting from 12-step serial doubling dilutions, i.e. one- to 2048-fold, with the upper limit of final concentration set to several nM to several tens of nM). The mixture samples were incubated at a room temperature until the antigen-antibody reaction reached equilibrium. After the reaction reached equilibrium, the percentage of free anti-IL-33 antibody in each sample was analyzed using KinExA3200. The values of Kd were calculated by fitting the plot of percentages of anti-IL-33 antibody not bound to the human IL-33 protein (vertical axis) and concentrations of antigen (horizontal axis) to a theoretical formula, using a KinExA data analysis program (KinExA Pro Software v3.5.3, available from Sapidyne Instruments, Inc.). Beads for capturing the anti-IL-33 antibody were prepared by suspending 50 mg of Azlactone beads (Sapidyne) in 1 mL of coating solution (10 μg/mL human IL-33 protein (ILC0701, available from ATGen Co. Ltd), 50 mM sodium carbonate at pH of 9.6) and incubating the solution at a room temperature for one hour. The antibody for detection used was anti-human F(ab)′2-DyLight649 (Jackson, 309-495-006).

[4] = target: T1, recombinant human IL-33 protein …; assay: SPR (Biacore T200), human IL-33 (ILC0701) immobilized on CM5, Calibration Free Concentration Analysis of the preserved antibody against a control-preserved sample
Protocol: Each alkaline-purified antibody was dissolved in a citrate buffer (50 mM citric acid; 150 mM NaCl (pH: 6.3)) at a concentration of about 10 mg/mL, and was preserved at a temperature of 40° C. for four weeks, to evaluate the preservation stability of each test antibody (IgG). For evaluation of the monomer purity of each antibody after the preservation, monomer purity was measured by size exclusion chromatography analysis (SEC) and microchip capillary SDS electrophoresis (mCE-SDS), and antigen-binding activity was measured by surface plasmon resonance.
In order to confirm the presence of the antigen-binding ability after the preservation, the antigen-binding activity was measured with a surface plasmon resonance system, Biacore T200 (available from GE Healthcare). A human IL-33 protein (ILC0701, available from ATGen Co. Ltd) was immobilized onto a Sensor Chip CM5 (GE Healthcare) (the amount of immobilized protein was about 3000 to 6000 RU) with Amine Coupling Kit (GE Healthcare). Each preserved antibody solution was then diluted to 10-fold with a citric buffer (50 mM citric acid, 150 mM NaCl (pH: 6.3)), and the resulting solution was analyzed to measure the total protein concentration in the solution, using a microvolume spectrophotometer, Astragene II (Astranet Systems, Ltd.) (protein concentration: about 1 mg/mL). The antibody solution after the measurement of the total protein concentration was diluted to 1000-fold with HBS-EP buffer (10 mM HEPES, 150 mM NaCl, 3 mM EDTA, 0.05% (v/v) Surfactant P20 (at pH of 7.4)). The analyte was thereby prepared. The measurement temperature was 25° C. Each analyte was added for 36 seconds at two flow rates of 5 μL/min and 100 μL/min to obtain sensorgrams of the association phase. The sensorgrams were then analyzed by Calibration Free Concentration Analysis using a data analysis program (GE Healthcare, Biacore T200 Evaluation Software v1.0) to determine the concentration of the antibody having antigen-binding activity. As control, each test antibody after preservation at a temperature of 4° C. for four weeks was also analyzed to confirm the antigen-binding activity, to calculate the ratio of antigen-binding activity of each test antibody after the preservation at a temperature of 40° C. for four weeks.

[5] = target: T2, biotinylated 6His tag-AviTag-linked …; assay: SPR, IL-33 on chip, Fab supernatant as analyte
Protocol: (§1) The library after the enrichment was used to construct a library of Escherichia coli secreting and expressing Fab. The culture supernatants of several hundreds of clones of Escherichia coli were subjected to measurement of dissociation rate constant (koff) by surface plasmon resonance (SPR) (ProteOn XPR36, available from Bio-Rad Laboratories, Inc.). The biotinylated human IL-33 protein (4 μg/mL) and cynomolgus monkey IL-33 protein (4 μg/mL) were loaded as ligands on a sensor chip (NLC sensor chip, available from Bio-Rad Laboratories, Inc.), to immobilize the human IL-33 protein at an amount equivalent to 1300 to 1600 RU, and the cynomolgus monkeyIL-33 protein at an amount equivalent to 1100 to 1500 RU. The culture supernatant of Escherichia coli was then loaded thereon as analyte to obtain a sensorgram with association phase of one minute and dissociation phase of 10 to 30 minutes. The sensorgram was subjected to interspot correction and blank correction using an SPR data analysis program (ProteOn Manager v3.1.0, available from Bio-Rad Laboratories, Inc.), and then values of koff were determined by off-rate analysis of Langmuir model.

[6] = target: T3, 6His-AviTag-linked cynomolgus monkey …; assay: SPR, IL-33 on chip, Fab supernatant as analyte
Protocol: as §1

Binder	IC50 of inhibition of IL-6 production by HUVEC (alkaline-purified IgG, human IL-33 100 ng/mL) [1]	inhibition of IFN-γ production by human PBMC (alkaline-purified IgG 10 ug/mL, IL-33 10 ng/mL, IL-12 10 ng/mL) [1]	inhibition of production of IL-5 and IL-13 by KU-812 cells (alkaline-purified IgG 1 ug/mL; IL-33 3 ng/mL with IL-3 and C5a) [1]	percentage of inhibition (%) of IL-6 production by HUVEC (neutral-purified IgG 1 ug/mL, IL-33 100 ng/mL) [1]	Kd [2]	Kd [3]	% Active IgG (antigen binding activity after preservation at 40 C for 4 W) [4]	Human IL-33 Binding Amount (RU) [5]	koff [5]	Cynomolgus Monkey IL-33 Binding Amount (RU) [6]	koff [6]
A23-1A05 (IgG) (antibody, V domains shown, tested as neutral-purified and as alkaline-purified antibody; also called V8; IGN8) VH: EVQLLESGGGLVQPGGSLRLSCAASGFTFSNYYMHWVRQAPGKGLEWVSSISARSRYHYYADSVKGRFTISRDNSKNTLYLQMNSLRAEDTAVYYCARLATRHNAFDIWGQGTLVTVSS VL: QSVLTQPPSASGTPGQRVTISCSGSSSNIGNNAVSWYQQLPGTAPKLLIYASNMRVIGVPDRFSGSKSGTSASLAISGLRSEDEADYYCGAWDDSQKALVFGGGTKLTVL	0.27 µg/mL	97.5%	≥ 50%	74%	0.231 nM	0.195 nM	102%	–	–	–	–
A25-2C02 (IgG) (antibody, V domains shown, tested as neutral-purified and as alkaline-purified antibody; also called V15; IGN15) VH: EVQLLESGGGLVQPGGSLRLSCAASGFTFSNYYMHWVRQAPGKGLEWVSSISARSSYIYYADSVKGRFTISRDNSKNTLYLQMNSLRAEDTAVYYCARLATRNNAFDIWGQGTLVTVSS VL: QSVLTQPPSASGTPGQRVTISCSGSSSNIGRNAVNWYQQLPGTAPKLLIYASNMRVSGVPDRFSGSKSGTSASLAISGLRSEDEADYYCWAWDDSQKVGVFGGGTKLTVL	0.19 µg/mL	98.8%	≥ 50%	96%	0.00072 nM	0.0007 nM	100%	–	–	–	–
A28-2C06 (Fab) (Fab, V domains shown, Fab secreted by E. coli, tested as culture supernatant; also called V25) VH: EVQLLESGGGLVQPGGSLRLSCAASGFTFSNYYMHWVRQAPGKGLEWVSSISARSSYIYYAGSVKGRFTISRDNSKNTLYLQMNSLRAEDTAVYYCARLGTRRVAFDIWGQGTLVTVSS VL: QSVLTQPPSASGTPGQRVTISCSGSSSNIGRNAVNWYQQLPGTAPKLLIYASNMRGMGVPDRFSGSKSGTSASLAISGLRSEDEADYYCSAWDDSQKVVVFGGGTKLTVL	–	–	–	–	–	–	–	123 RU	1e-05 s⁻¹	134 RU	1e-05 s⁻¹

Next, values leading:

IC50 of inhibition of IL-6 production by HUVEC (alkaline-purified IgG, human IL-33 100 ng/mL) [1]	inhibition of IFN-γ production by human PBMC (alkaline-purified IgG 10 ug/mL, IL-33 10 ng/mL, IL-12 10 ng/mL) [1]	inhibition of production of IL-5 and IL-13 by KU-812 cells (alkaline-purified IgG 1 ug/mL; IL-33 3 ng/mL with IL-3 and C5a) [1]	percentage of inhibition (%) of IL-6 production by HUVEC (neutral-purified IgG 1 ug/mL, IL-33 100 ng/mL) [1]	Kd [2]	Kd [3]	% Active IgG (antigen binding activity after preservation at 40 C for 4 W) [4]	Human IL-33 Binding Amount (RU) [5]	koff [5]	Cynomolgus Monkey IL-33 Binding Amount (RU) [6]	koff [6]	Binder
–	–	–	–	–	–	–	289 RU	1e-05 s⁻¹	259 RU	1.14e-05 s⁻¹	A28-2G07 (Fab) (Fab, V domains shown, Fab secreted by E. coli, tested as culture supernatant; also called V27) VH: EVQLLESGGGLVQPGGSLRLSCAASGFTFSSYYMHWVRQAPGKGLEWVSSISARSSYIYYADSVKGRFTISRDNSKNTLYLQMNSLRAEDTAVYYCARLATRRIAFDIWGQGTLVTVSS VL: QSVLTQPPSASGTPGQRVTISCSGSSSNIGRNAVNWYQQLPGTAPKLLIYASNMRRPGVPDRFSGSKSGTSASLAISGLRSEDEADYYCSAWDDSQKAGVFGGGTKLTVL
–	–	–	–	–	–	–	289 RU	1e-05 s⁻¹	258 RU	1e-05 s⁻¹	A28-2F01 (Fab) (Fab, V domains shown, Fab secreted by E. coli, tested as culture supernatant; also called V26) VH: EVQLLESGGGLVQPGGSLRLSCAASGFTFSNYYMHWVRQAPGKGLEWVSSISSRSSHQYYAGSVKGRFTISRDNSKNTLYLQMNSLRAEDTAVYYCARLGLRHDAFDIWGQGTLVTVSS VL: QSVLTQPPSASGTPGQRVTISCSGSSSNIGHNAVWWYQQLPGTAPKLLIYASNMRRMGVPDRFSGSKSGTSASLAISGLRSEDEADYYCAAWDDSQKAVVFGGGTKLTVL
–	–	–	–	–	–	–	349 RU	1e-05 s⁻¹	317 RU	1e-05 s⁻¹	A28-2H06 (Fab) (Fab, V domains shown, Fab secreted by E. coli, tested as culture supernatant; also called V28) VH: EVQLLESGGGLVQPGGSLRLSCAASGFTFSNYYMHWVRQAPGKGLEWVSSISALSSYRYYADSVKGRFTISRDNSKNTLYLQMNSLRAEDTAVYYCARLATRRVAFDIWGQGTLVTVSS VL: QSVLTQPPSASGTPGQRVTISCSGSSSNIGNNAVNWYQQLPGTAPKLLIYASNMRRLGVPDRFSGSKSGTSASLAISGLRSEDEADYYCAAWDDSQKALVFGGGTKLTVL

From patent US20240002495A1 (MITSUBISHI TANABE PHARMA, published 2024)
